Measured values taken from paper PMC8909857.

Biological target: Channelrhodopsin-2 (D156C) (Chlamydomonas reinhardtii) (UniProt Q8RUT8)
Experiment: SDS-PAGE; Coomassie-stained SDS-PAGE of SEC-purified fractions (elution volumes 11 to 15 mL); dimer partially SDS-resistant

“Channelrhodopsin-2 (D156C) (from UniProt Q8RUT8 1-737) (natural protein)” gave a stoichiometry N of 2.
